# Laboratory results from PMC6400076 (Frontiers in Microbiology, 2019).
# Assays:
# AvGAPDH = target: T1, AvGAPDH (Fannyhessea vaginae, UniProt F1T6A5); type: biochemical
# T1 construct: gene gap; recombinant, expressed and purified by similar protocols as previously described, homotetramer
# SpGAPDH = target: T2, SpGAPDH (Streptococcus pyogenes, UniProt P68777)
# T2 construct: gene gap
# [1] = tested on: NC(=O)c1ccc[n+]([C@@H]2O[C@H](COP(=O)(O)OP(=O)(O)OC[C@H]3O[C@@H](n4cnc5c(N)ncnc54)[C@H](O)[C@@H]3O)[C@@H](O)[C@H]2O)c1; assay: purified protein; details: 5 mM G3P, 50 mM Pi, pH 8.5, 25°C
# O=C[C@H](O)COP(=O)(O)O = assay: purified protein; details: 2 mM NAD+, 50 mM Pi, pH 8.5, 25°C
# T2 sequence (P68777 whole entry): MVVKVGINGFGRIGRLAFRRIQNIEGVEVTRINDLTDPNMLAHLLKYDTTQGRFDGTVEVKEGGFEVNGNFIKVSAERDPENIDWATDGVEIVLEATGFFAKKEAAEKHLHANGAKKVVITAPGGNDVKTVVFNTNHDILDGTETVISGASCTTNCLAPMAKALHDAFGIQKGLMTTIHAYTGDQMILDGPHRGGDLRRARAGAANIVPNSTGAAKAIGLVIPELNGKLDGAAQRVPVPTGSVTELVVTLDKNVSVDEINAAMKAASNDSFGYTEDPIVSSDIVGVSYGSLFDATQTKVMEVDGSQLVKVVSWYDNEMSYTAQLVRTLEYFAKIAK
# T1 sequence (F1T6A5 entry or part of it): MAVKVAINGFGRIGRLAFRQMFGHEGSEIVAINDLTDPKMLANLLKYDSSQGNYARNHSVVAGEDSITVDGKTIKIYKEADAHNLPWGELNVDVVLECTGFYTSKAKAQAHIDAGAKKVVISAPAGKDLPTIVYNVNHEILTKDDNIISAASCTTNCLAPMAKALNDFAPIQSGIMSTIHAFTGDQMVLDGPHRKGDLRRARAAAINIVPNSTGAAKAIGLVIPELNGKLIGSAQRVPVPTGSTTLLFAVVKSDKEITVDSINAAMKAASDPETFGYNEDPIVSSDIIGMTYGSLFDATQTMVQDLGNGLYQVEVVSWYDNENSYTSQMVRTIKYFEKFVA
Molecule,Ki (AvGAPDH) [µM],Ki (SpGAPDH) [µM],Km [1] [µM],Vmax [1] [µM/min/mg],kcat [1] [s⁻¹],Km (O=C[C@H](O)COP(=O)(O)O) [µM],Vmax (O=C[C@H](O)COP(=O)(O)O) [µM/min/mg],kcat (O=C[C@H](O)COP(=O)(O)O) [s⁻¹],kcat/Km (O=C[C@H](O)COP(=O)(O)O) [M⁻¹ s⁻¹]
"CCCCCCCCCCCCCCCc1cccc(O)c1C(=O)O [anacardic acid, 6-pentadecylsalicylic acid]",1.25 ± 0.08,3.3 ± 0.3,,,,,,,
COc1cc(/C=C/C(=O)CC(=O)/C=C/c2ccc(O)c(OC)c2)ccc1O [curcumin],39 ± 3,38 ± 4,,,,,,,
SpGAPDH (Streptococcus pyogenes MGAS8232),,,280 ± 30,2.24e+06,3730 ± 100,2800 ± 300,3.67e+06,6110 ± 260,2.18e+06 ± 320000
